# Literature values, collected in article PMC3600088.
# Target: Protective antigen (PA) (Bacillus anthracis) (UniProt P13423)
substance,measurement,value
CMG2 (from UniProt P58335),Kd,> 0.17 nM
